Results from patent US20060270591A1, “Androgen receptor coregulators” (priority 2002, published 2006).

What was measured:
[1] = target: T1, PR (Homo sapiens, UniProt P06401); assay: PR transactivation with ARA70 in DU145 cells (Example 3); type: cell-based
T1 construct: expressed in transfected cells; host or cells: DU145, PC-3
T1 sequence (P06401 1-933): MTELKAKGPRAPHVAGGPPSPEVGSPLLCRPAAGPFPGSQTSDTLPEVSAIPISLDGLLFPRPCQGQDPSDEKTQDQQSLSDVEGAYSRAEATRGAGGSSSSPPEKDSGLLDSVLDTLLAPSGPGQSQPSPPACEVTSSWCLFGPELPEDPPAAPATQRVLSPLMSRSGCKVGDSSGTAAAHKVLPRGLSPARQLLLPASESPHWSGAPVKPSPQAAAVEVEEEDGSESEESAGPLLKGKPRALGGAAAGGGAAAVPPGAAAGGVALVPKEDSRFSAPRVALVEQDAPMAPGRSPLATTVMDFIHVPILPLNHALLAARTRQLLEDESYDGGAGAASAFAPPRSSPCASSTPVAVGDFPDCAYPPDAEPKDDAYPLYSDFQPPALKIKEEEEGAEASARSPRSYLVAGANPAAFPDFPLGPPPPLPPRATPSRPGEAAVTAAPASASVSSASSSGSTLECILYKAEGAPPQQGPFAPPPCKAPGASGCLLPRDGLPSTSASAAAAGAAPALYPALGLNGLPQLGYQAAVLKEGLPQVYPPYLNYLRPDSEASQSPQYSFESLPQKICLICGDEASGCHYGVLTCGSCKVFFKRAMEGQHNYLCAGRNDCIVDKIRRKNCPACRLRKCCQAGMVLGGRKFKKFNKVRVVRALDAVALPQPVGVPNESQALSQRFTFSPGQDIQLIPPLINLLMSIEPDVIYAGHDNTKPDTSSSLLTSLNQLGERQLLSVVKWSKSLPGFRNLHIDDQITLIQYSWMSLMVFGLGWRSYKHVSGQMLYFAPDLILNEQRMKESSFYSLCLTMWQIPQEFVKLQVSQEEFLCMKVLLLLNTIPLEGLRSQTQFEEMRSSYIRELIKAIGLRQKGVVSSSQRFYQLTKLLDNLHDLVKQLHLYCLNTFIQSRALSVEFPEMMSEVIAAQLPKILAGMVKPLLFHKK
Method: (§1) 411. Human prostate cancer DU145 and PC-3 cells were maintained in […] (DMEM) containing penicillin (25 U/ml), streptomycin (25 μg/ml), and 5% fetal calf serum (FCS). Human LNCaP cells were maintained in RPMI containing penicillin (25 U/ml), streptomycin (25 μg/ml), and 10% FCS. Transfections were performed using the calcium phosphate precipitation method, as previously described (Dynlacht et al. (1991) Cell 66, 563-576). Briefly, 4×10^5 cells were plated on 60-mm dishes 24 hours before transfection, and the medium was changed to DMEM with 5% charcoal-dextran stripped FCS (CS-FBS) one hour before transfection. Transfection medium contained a constant amount of reporter plasmid and indicated amounts of pSG5-receptor, ARA70, or pCMX-GAL fusion construct using pSG5 as a carrier to provide equal amounts of transfected DNA. Twenty-four hours after transfection, the medium was changed again, and the cells were treated with DHT or other treatments. After another 24 hours, the cells were harvested for chloramphenicol transferase (CAT) or luciferase assays. At least three independent experiments were carried out in each case. Superfect (Qiagen) was used for transfection in LNCaP cells. The transfection conditions followed the manufacturer's protocol. […]

[2] = target: T2, GR (Homo sapiens, UniProt P04150); assay: GR transactivation with ARA70 in DU145 cells (Example 3); type: cell-based; design: expressed in transfected cells; host or cells: DU145
T2 sequence (P04150 1-777): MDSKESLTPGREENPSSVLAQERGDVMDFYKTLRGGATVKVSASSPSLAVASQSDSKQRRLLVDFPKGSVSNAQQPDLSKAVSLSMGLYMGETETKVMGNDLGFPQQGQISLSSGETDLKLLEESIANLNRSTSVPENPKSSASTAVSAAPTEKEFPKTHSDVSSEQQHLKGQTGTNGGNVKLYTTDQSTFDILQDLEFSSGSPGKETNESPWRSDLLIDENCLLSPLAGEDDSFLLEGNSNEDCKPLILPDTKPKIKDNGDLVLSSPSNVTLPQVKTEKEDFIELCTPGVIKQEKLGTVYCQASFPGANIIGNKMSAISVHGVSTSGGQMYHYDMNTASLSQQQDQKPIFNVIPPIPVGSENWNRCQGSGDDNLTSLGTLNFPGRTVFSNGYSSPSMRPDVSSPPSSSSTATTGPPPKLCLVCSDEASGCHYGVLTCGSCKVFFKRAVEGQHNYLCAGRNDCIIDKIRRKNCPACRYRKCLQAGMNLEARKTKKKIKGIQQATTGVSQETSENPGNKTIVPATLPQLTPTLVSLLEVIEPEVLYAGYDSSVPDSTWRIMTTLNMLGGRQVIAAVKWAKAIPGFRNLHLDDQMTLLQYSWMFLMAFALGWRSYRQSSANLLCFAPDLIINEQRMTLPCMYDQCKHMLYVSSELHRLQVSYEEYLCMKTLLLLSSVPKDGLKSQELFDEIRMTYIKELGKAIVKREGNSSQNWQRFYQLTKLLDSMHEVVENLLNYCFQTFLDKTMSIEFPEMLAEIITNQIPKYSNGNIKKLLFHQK
Method: as §1

[3] = test system: AR; settings: CV-1 cells; reported by others; cited from earlier work
[4] = test system: AR; assay: AR transactivation assay, MMTV-CAT reporter, transient transfection (Example 1); type: cell-based, human; settings: DU145 cells; wild type AR; 1 nM DHT
Method: Human prostate cancer DU145 or PC3 cells, or human lung carcinoma cells NCI H1299 were grown in Dulbecco's minimal essential medium (DMEM) containing penicillin (25 U/ml), streptomycin (25˜g/ml), and 5% fetal calf serum (FCS). One hour before transfection, the medium was changed to DMEM with 5% charcoal-stripped FCS. […] A β-galactosidase expression plasmid, pCMV-β-gal, was used as an internal control for transfection efficiency.
The medium was changed 24 hr posttransfection and the cells treated with either steroid hormones or hydroxyflutamide, and cultured for an additional 24 hr. Cells were harvested and assayed for CAT activity after the cell lysates were normalized by using β-galactosidaseas an internal control. Chloramphenicol acetyltransferase (CA) activity was visualized by PhosphorImager (Molecular Dynamics) and quantitated by ImageQuant software (Molecular Dynamics).

Sequence of AR (P10275 whole entry): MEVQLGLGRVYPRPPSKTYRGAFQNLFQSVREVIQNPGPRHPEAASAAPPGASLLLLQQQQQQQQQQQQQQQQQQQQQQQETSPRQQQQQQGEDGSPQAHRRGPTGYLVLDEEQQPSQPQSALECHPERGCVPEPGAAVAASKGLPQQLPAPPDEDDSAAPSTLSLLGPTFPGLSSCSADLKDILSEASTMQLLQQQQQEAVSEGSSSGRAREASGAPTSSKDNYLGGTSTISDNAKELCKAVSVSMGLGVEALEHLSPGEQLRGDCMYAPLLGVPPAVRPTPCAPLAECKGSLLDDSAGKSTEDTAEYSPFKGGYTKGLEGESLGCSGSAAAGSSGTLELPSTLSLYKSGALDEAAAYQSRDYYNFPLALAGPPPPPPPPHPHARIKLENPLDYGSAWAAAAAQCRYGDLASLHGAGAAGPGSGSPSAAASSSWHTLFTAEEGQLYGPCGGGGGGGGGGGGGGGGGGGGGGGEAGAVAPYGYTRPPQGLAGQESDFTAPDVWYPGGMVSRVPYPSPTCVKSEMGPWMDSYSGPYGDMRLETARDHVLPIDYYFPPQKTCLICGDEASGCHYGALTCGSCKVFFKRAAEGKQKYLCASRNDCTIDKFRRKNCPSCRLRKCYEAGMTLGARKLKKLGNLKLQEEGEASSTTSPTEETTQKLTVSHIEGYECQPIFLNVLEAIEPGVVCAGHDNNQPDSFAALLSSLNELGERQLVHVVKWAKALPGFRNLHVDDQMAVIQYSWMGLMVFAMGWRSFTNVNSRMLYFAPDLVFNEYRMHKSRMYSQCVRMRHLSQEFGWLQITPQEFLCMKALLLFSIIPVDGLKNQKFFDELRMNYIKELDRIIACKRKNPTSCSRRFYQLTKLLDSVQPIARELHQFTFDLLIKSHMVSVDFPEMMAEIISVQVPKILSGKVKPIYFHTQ

enhancement of PR transactivation [1]: 2-3 fold
enhancement of GR transactivation [2]: 2-3 fold
Substance: ARA70: ligand-enhanced AR coregulator, full length ARA70
enhancement of AR activity [3]: 2-3 fold
AR transcription activity with cotransfected coactivator [4]: 36 fold
